In US20190271705A1:
pKd: −log10 of the molar value.

Experiments:
Assay in all cases: fluorescence polarization in solution
[1] = target: fluorescein-GGpYGG peptide (SEQ ID NO: 23)
EGFR-pY978 peptide = target: EGFR-pY978 peptide
MidT-pY324 peptide = target: MidT-pY324 peptide
ShcA-pY239 peptide = target: ShcA-pY239 peptide

Substance	pKd [1]	pKd (EGFR-pY978 peptide)	pKd (MidT-pY324 peptide)	pKd (ShcA-pY239 peptide)
wild-type Fyn SH2 domain (hexa-histidine-tagged construct, SEQ ID NO:4)	4.17			
T8V/C10A/K15L variant Src SH2 domain (designed binder)	6.29	9.00	9.00	9.00
